From article PMC6987225, “Eukaryotic transcription factors can track and control their target genes using DNA antennas” come the findings set out here.

A word on the Kd: it is the constant that tells how readily two partners part at equilibrium.

Settings in all cases: protein: recombinant; tags: C-terminal Cys added, labeled with Alexa 488 C5-maleimide; blunt
Series [1] has as its target T1, EngHD (Engrailed homeodomain, DNA-binding domain) (Drosophila melanogaster, UniProt P02836 454-513).
T1 sequence: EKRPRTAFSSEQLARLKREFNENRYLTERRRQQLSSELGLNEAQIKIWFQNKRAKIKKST
Kind of series: FCS; minimal difference from N7; FCS, ~1 nM Alexa 488-EngHD with unlabeled dsDNA titrated; ionic strength 50 mM (NaCl) unless stated; buffer, pH and temperature not in the material.

Series [2] addresses T1, EngHD (Engrailed homeodomain, …). The series is described as follows: FCS; 50 mM ionic strength; FCS, ~1 nM Alexa 488-EngHD with unlabeled dsDNA titrated; ionic strength 50 mM (NaCl) unless stated; buffer, pH and temperature not in the material.
Series [3] has the same target. Described as above. The source holds these as a separate data set.
Series [4] has the same target. Kind of series: FCS; affinity unchanged vs N8; FCS, ~1 nM Alexa 488-EngHD with unlabeled dsDNA titrated; ionic strength 50 mM (NaCl) unless stated; buffer, pH and temperature not in the material.
Series [5] has the same target. The series is described as follows: FCS; 50 mM ionic strength; FCS, ~1 nM Alexa 488-EngHD with unlabeled dsDNA titrated; ionic strength 50 mM (NaCl) unless stated; buffer, pH and temperature not in the material. The source holds these as a separate data set.
Series [6] has the same target. The description is as above. This is another data set of the same source.
Series [7] shares this target. Described as above. This is another data set of the same source.
Series [8] shares this target. The description is as above. The source holds these as a separate data set.

B1: 75 bp CGTGTT shuffled (m5) (dsDNA)
DNA 1: GCTCGACATAGATCTGACTGACATGCTATCAGTCTACGTGTTCAGTCTAGCTGTGCATCGATCTATACATCTAGC
DNA 2: GCTAGATGTATAGATCGATGCACAGCTAGACTGAACACGTAGACTGATAGCATGTCAGTCAGATCTATGTCGAGC
For the molecule B1, the binding result in series [1] was “binds”.

B2: 150 bp TAATTG (m6) (dsDNA)
DNA 1: TTCTTAACCAAATTGAATTCTCGCCACCGATCGTGTTCGCCCGAAATAAATCTGGCCGAAAAGCCATCAATCTATAATTGCAATCTAACTGTGCCTCGGTTTATACCTCCAACTGCCGTTCACCGAAAAGGCCGACAGTTTTCCGACAAA
DNA 2: TTTGTCGGAAAACTGTCGGCCTTTTCGGTGAACGGCAGTTGGAGGTATAAACCGAGGCACAGTTAGATTGCAATTATAGATTGATGGCTTTTCGGCCAGATTTATTTCGGGCGAACACGATCGGTGGCGAGAATTCAATTTGGTTAAGAA
On to B2, for which the binding signal in series [2] was ~2 fold higher affinity than 75 bp TAATTG (N2).

B3: 38 bp TAATTG (dsDNA)
DNA 1: AAAAGCCATCAATCTATAATTGCAATCTAACTGTGCCT
DNA 2: AGGCACAGTTAGATTGCAATTATAGATTGATGGCTTTT
Turning to B3, in series [3], the Kd is 7.26 -log10 M.

B4: 150 bp TAATTG half original/half shuffled (m8) (dsDNA)
DNA 1: TACTCATCGATACTCAGTACTCGCGACGCATCGTGTACGCCCGAAATAAATCTGGCCGAAAAGCCATCAATCTATAATTGCAATCTAACTGTGCCTCGGTTTATACCTCCAACTGCAGTACACTGATATGACAGACAGTATGCTCACATA
DNA 2: TATGTGAGCATACTGTCTGTCATATCAGTGTACTGCAGTTGGAGGTATAAACCGAGGCACAGTTAGATTGCAATTATAGATTGATGGCTTTTCGGCCAGATTTATTTCGGGCGTACACGATGCGTCGCGAGTACTGAGTATCGATGAGTA
With B4, the binding result in series [4] was “binds”.

B5: 150 bp TAATTG shuffled (m7) (dsDNA)
DNA 1: TACTCATCGATACTCAGTACTCGCGACGCATCGTGTACGCGCGACATACATCTCACTGATACGCGATCACTCTATAATTGCACTCTATCTGTGCATCGCTCTATAGCTCTATCTGCAGTACACTGATATGACAGACAGTATGCTCACATA
DNA 2: TATGTGAGCATACTGTCTGTCATATCAGTGTACTGCAGATAGAGCTATAGAGCGATGCACAGATAGAGTGCAATTATAGAGTGATCGCGTATCAGTGAGATGTATGTCGCGCGTACACGATGCGTCGCGAGTACTGAGTATCGATGAGTA
In the case of B5, the binding result in series [4] was “binds”.

B6: 75 bp TAATTG high G/C (m3) (dsDNA)
DNA 1: CCCCCTCCCACCCCTCCACCCCCTCCCCTCCCCCCCTAATTGCCCTCCCCTCCCCCACCCCCTCCCCCACCCCCT
DNA 2: AGGGGGTGGGGGAGGGGGTGGGGGAGGGGAGGGCAATTAGGGGGGGAGGGGAGGGGGTGGAGGGGTGGGAGGGGG
As to B6, the Kd in series [5] was about 700 nM.

B7: 75 bp TAATTG (m2) (dsDNA)
DNA 1: GCCCGAAATAAATCTGGCCGAAAAGCCATCAATCTATAATTGCAATCTAACTGTGCCTCGGTTTATACCTCCAAC
DNA 2: GTTGGAGGTATAAACCGAGGCACAGTTAGATTGCAATTATAGATTGATGGCTTTTCGGCCAGATTTATTTCGGGC
In the case of B7, the Kd in series [6] is 7.44 -log10 M.

B8: 75 bp GAATTG (dsDNA)
DNA 1: GCCCGAAATAAATCTGGCCGAAAAGCCATCAATCTAGAATTGCAATCTAACTGTGCCTCGGTTTATACCTCCAAC
DNA 2: GTTGGAGGTATAAACCGAGGCACAGTTAGATTGCAATTCTAGATTGATGGCTTTTCGGCCAGATTTATTTCGGGC
Turning to B8, the binding signal in series [7] was 19 fold lower affinity than TAATTA (N3).

B9: 75 bp CGTGTT (m4) (dsDNA)
DNA 1: GCCCGAAATAAATCTGGCCGAAAAGCCATCAATCTACGTGTTCAATCTAACTGTGCCTCGGTTTATACCTCCAAC
DNA 2: GTTGGAGGTATAAACCGAGGCACAGTTAGATTGAACACGTAGATTGATGGCTTTTCGGCCAGATTTATTTCGGGC
As for B9, in series [7], the binding signal is 22 fold lower affinity than TAATTA (N3).

B10: 75 bp TAATTT (dsDNA)
DNA 1: GCCCGAAATAAATCTGGCCGAAAAGCCATCAATCTATAATTTCAATCTAACTGTGCCTCGGTTTATACCTCCAAC
DNA 2: GTTGGAGGTATAAACCGAGGCACAGTTAGATTGAAATTATAGATTGATGGCTTTTCGGCCAGATTTATTTCGGGC
As for B10, in series [6], the Kd is 7.79 -log10 M.

B11: 75 bp TATATA (dsDNA)
DNA 1: GCCCGAAATAAATCTGGCCGAAAAGCCATCAATCTATATATACAATCTAACTGTGCCTCGGTTTATACCTCCAAC
DNA 2: GTTGGAGGTATAAACCGAGGCACAGTTAGATTGTATATATAGATTGATGGCTTTTCGGCCAGATTTATTTCGGGC
Turning to B11, the binding signal in series [7] is ~10 fold lower affinity than TAATTA (N3).

B12: 75 bp TAATTA (m1) (dsDNA)
DNA 1: GCCCGAAATAAATCTGGCCGAAAAGCCATCAATCTATAATTACAATCTAACTGTGCCTCGGTTTATACCTCCAAC
DNA 2: GTTGGAGGTATAAACCGAGGCACAGTTAGATTGTAATTATAGATTGATGGCTTTTCGGCCAGATTTATTTCGGGC
B12: the Kd in series [8] was 8.43 -log10 M.
